Here are results for three molecules from PMC8928223, “The Collagen Receptor Discoidin Domain Receptor 1b Enhances Integrin β1-Mediated Cell Migration by Interacting With Talin and Promoting Rac1 Activation” (Frontiers in Cell and Developmental Biology, 2022).

What is called Kd is the free concentration of one partner at which half of the binding sites on the other are occupied at equilibrium, for simple one-to-one binding. A lower Kd goes with higher affinity.

Assay [1] concerns the target T1, DDR1b-Turbo containing a Flag tag (human, UniProt Q08345-1 19-913).
T1 construct: Discoidin domain receptor 1, isoform DDR1b, human, fused to the biotin ligase turbo-Flag as bait for BioID; construct described in Borza et al., 2021; source: HEK 293, stably transfected, in live cells and lysate
Briefly: proximity labelling; BioID with turbo-Flag fused to DDR1 in HEK cells plated on collagen I (30 µg/ml) for 1-3 h with 50 µM biotin; streptavidin-agarose pull-down of the lysate and Western blot. Conditions: partners not purified. For orientation: Immunoblotting shows a protein as a band on a membrane.

The target in assay [2] is T2, talin head domain (THD, a. a. 1-433), HIS-tagged (UniProt P26039 1-433).
T2 chain: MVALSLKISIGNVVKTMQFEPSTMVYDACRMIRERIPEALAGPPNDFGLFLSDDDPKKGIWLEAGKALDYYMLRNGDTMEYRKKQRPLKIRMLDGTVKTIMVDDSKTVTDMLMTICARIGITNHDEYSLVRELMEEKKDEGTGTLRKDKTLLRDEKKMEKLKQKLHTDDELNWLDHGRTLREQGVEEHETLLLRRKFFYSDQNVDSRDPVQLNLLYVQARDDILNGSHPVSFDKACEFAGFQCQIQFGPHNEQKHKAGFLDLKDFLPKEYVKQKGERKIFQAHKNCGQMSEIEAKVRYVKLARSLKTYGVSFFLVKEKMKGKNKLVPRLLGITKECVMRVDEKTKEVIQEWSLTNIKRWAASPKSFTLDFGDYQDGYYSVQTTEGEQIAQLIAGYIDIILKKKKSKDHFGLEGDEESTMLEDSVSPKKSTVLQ
The experiment in a line: ELISA. (In general: In an ELISA, binding on a coated surface is turned into a signal by an enzyme label.)

B1: Breakpoint cluster region protein (BCR) (natural protein, human (endogenous in HEK 293), UniProt P11274 1-1271, looked up)
chain: MVDPVGFAEAWKAQFPDSEPPRMELRSVGDIEQELERCKASIRRLEQEVNQERFRMIYLQTLLAKEKKSYDRQRWGFRRAAQAPDGASEPRASASRPQPAPADGADPPPAEEPEARPDGEGSPGKARPGTARRPGAAASGERDDRGPPASVAALRSNFERIRKGHGQPGADAEKPFYVNVEFHHERGLVKVNDKEVSDRISSLGSQAMQMERKKSQHGAGSSVGDASRPPYRGRSSESSCGVDGDYEDAELNPRFLKDNLIDANGGSRPPWPPLEYQPYQSIYVGGMMEGEGKGPLLRSQSTSEQEKRLTWPRRSYSPRSFEDCGGGYTPDCSSNENLTSSEEDFSSGQSSRVSPSPTTYRMFRDKSRSPSQNSQQSFDSSSPPTPQCHKRHRHCPVVVSEATIVGVRKTGQIWPNDGEGAFHGDADGSFGTPPGYGCAADRAEEQRRHQDGLPYIDDSPSSSPHLSSKGRGSRDALVSGALESTKASELDLEKGLEMRKWVLSGILASEETYLSHLEALLLPMKPLKAAATTSQPVLTSQQIETIFFKVPELYEIHKEFYDGLFPRVQQWSHQQRVGDLFQKLASQLGVYRAFVDNYGVAMEMAEKCCQANAQFAEISENLRARSNKDAKDPTTKNSLETLLYKPVDRVTRSTLVLHDLLKHTPASHPDHPLLQDALRISQNFLSSINEEITPRRQSMTVKKGEHRQLLKDSFMVELVEGARKLRHVFLFTDLLLCTKLKKQSGGKTQQYDCKWYIPLTDLSFQMVDELEAVPNIPLVPDEELDALKIKISQIKNDIQREKRANKGSKATERLKKKLSEQESLLLLMSPSMAFRVHSRNGKSYTFLISSDYERAEWRENIREQQKKCFRSFSLTSVELQMLTNSCVKLQTVHSIPLTINKEDDESPGLYGFLNVIVHSATGFKQSSNLYCTLEVDSFGYFVNKAKTRVYRDTAEPNWNEEFEIELEGSQTLRILCYEKCYNKTKIPKEDGESTDRLMGKGQVQLDPQALQDRDWQRTVIAMNGIEVKLSVKFNSREFSLKRMPSRKQTGVFGVKIAVVTKRERSKVPYIVRQCVEEIERRGMEEVGIYRVSGVATDIQALKAAFDVNNKDVSVMMSEMDVNAIAGTLKLYFRELPEPLFTDEFYPNFAEGIALSDPVAKESCMLNLLLSLPEANLLTFLFLLDHLKRVAEKEAVNKMSLHNLATVFGPTLLRPSEKESKLPANPSQPITMTDSWSLEVMSQVQVLLYFLQLEAIPAPDSKRQSILFSTEV
modifications: biotinylated by the turbo ligase in cells
notes: Breakpoint cluster region protein, in HEK 293 cells, detected with an anti-BCR antibody after streptavidin pull-down; source: endogenous, HEK 293 cells, in lysate
Regarding B1, in assay [1], the “fold increase in biotinylated BCR against DDR1a-expressing cells” value worked out at 2.92 ± 1.42 fold.

B2: DDR1b cytoplasmic domain (domain or fragment)
chain: WRLHWRRLLSKAERRVLEEELTVHLSVPGDTILINNRPGPREPPPYQEPRPRGNPPHSAPCVPNGSALLLSNPAYRLLLATYARPPRGPGPPTPAWAKPTNTQAYSGDYMEPEKPGAPLLPPPPQNSVPHYAEADIVTLQGVTGGNTYAVPALPPGAVGDGPPRVDFPRSRLRFKEKLGEGQFGEVHLCEVDSPQDLVSLDFPLNVRKGHPLLVAVKILRPDATKNARNDFLKEVKIMSRLKDPNIIRLLGVCVQDDPLCMITDYMENGDLNQFLSAHQLEDKAAEGAPGDGQAAQGPTISYPMLLHVAAQIASGMRYLATLNFVHRDLATRNCLVGENFTIKIADFGMSRNLYAGDYYRVQGRAVLPIRWMAWECILMGKFTTASDVWAFGVTLWEVLMLCRAQPFGQLTDEQVIENAGEFFRDQGRQVYLSRPPACPQGLYELMLRCWSRESEQRPPFSQLHRFLAEDALNTV
B2 had a Kd in assay [2] of 96.5 nM.

B3: DDR1a cytoplasmic domain (domain or fragment)
chain: WRLHWRRLLSKAERRVLEEELTVHLSVPGDTILINNRPGPREPPPYQEPRPRGNPPHSAPCVPNGSAYSGDYMEPEKPGAPLLPPPPQNSVPHYAEADIVTLQGVTGGNTYAVPALPPGAVGDGPPRVDFPRSRLRFKEKLGEGQFGEVHLCEVDSPQDLVSLDFPLNVRKGHPLLVAVKILRPDATKNARNDFLKEVKIMSRLKDPNIIRLLGVCVQDDPLCMITDYMENGDLNQFLSAHQLEDKAAEGAPGDGQAAQGPTISYPMLLHVAAQIASGMRYLATLNFVHRDLATRNCLVGENFTIKIADFGMSRNLYAGDYYRVQGRAVLPIRWMAWECILMGKFTTASDVWAFGVTLWEVLMLCRAQPFGQLTDEQVIENAGEFFRDQGRQVYLSRPPACPQGLYELMLRCWSRESEQRPPFSQLHRFLAEDALNTV
In assay [2], B3 yielded a Kd of 220 nM.
